In the supplement of paper PMC9233669 one finds self-aminoacylation data, which are given here for 27 sequences.

One data set concerns biotinyl-Phe-oxazolone. Kind of data set: self-aminoacylation, catalytic enhancement (BFO) (fold over background); higher = more active; k-Seq, kA / k0A0; sequences stand for … in GGGAAUGGAUCCACAUCUACGAAUUC…UUCACUGCAGACUUGACGAAGCUG
Summed up: (§1)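 Catalytic enhancement equals the median kA over the uncatalyzed rate, the latter read from the low-activity peak of a bimodal Gaussian fit. Values of kA came from fitting each sequence's fraction reacted to a pseudo-first-order model, with 1000 bootstraps. Reacted RNA was captured with streptavidin and quantified by triplicate qPCR and Illumina sequencing after 90 minutes at room temperature with 2–1250 μM biotinyl-aminoacyl-oxazolone and 0.43 μM mutagenized RNA pools bearing a 21-nt variable region.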

For another data set, the system named is biotinyl-Met-oxazolone. Kind of data set: self-aminoacylation, catalytic enhancement (BMO) (fold over background); higher = more active; k-Seq, kA / k0A0; sequences stand for … in GGGAAUGGAUCCACAUCUACGAAUUC…UUCACUGCAGACUUGACGAAGCUG
An outline of the steps: as §1

For a further data set, the system named is biotinyl-Leu-oxazolone. Put plainly: self-aminoacylation, catalytic enhancement (BLO) (fold over background); higher = more active; k-Seq, kA / k0A0; sequences stand for … in GGGAAUGGAUCCACAUCUACGAAUUC…UUCACUGCAGACUUGACGAAGCUG
Summed up:
as §1

The test system of another data set is biotinyl-Trp-oxazolone. Kind of data set: self-aminoacylation, catalytic enhancement (BWO) (fold over background); higher = more active; k-Seq, kA / k0A0; sequences stand for … in GGGAAUGGAUCCACAUCUACGAAUUC…UUCACUGCAGACUUGACGAAGCUG
An outline of the steps:
as §1

The next data set deals with biotinyl-Val-oxazolone. Put plainly: self-aminoacylation, catalytic enhancement (BVO) (fold over background); higher = more active; k-Seq, kA / k0A0; sequences stand for … in GGGAAUGGAUCCACAUCUACGAAUUC…UUCACUGCAGACUUGACGAAGCUG
Summed up: as §1

The subject of the next data set is biotinyl-Ile-oxazolone. Kind of data set: self-aminoacylation, catalytic enhancement (BIO) (fold over background); higher = more active; k-Seq, kA / k0A0; sequences stand for … in GGGAAUGGAUCCACAUCUACGAAUUC…UUCACUGCAGACUUGACGAAGCUG
Summed up: as §1

Fewer inactive variants are shown than the library holds.

As to “AUUCAACUAGGUAAUCGGGUG [Fam2.2 aminoacylation ribozyme variant]”, the self-aminoacylation with biotinyl-Phe-oxazolone amounted to 19; with biotinyl-Met-oxazolone, 2.72; with biotinyl-Leu-oxazolone it was 3.41; with biotinyl-Trp-oxazolone, 2.81.
For “AUUACCCUGGUCAUCGAGAAA [Fam2.1 aminoacylation ribozyme variant]”, in that order: 5.05, 2.8, 2.97 and 2.58.
Consider “CCACACGUCAAGCAAUCGGUU [Fam1B.1 aminoacylation ribozyme variant]”, for which the self-aminoacylation in the data set with biotinyl-Val-oxazolone was determined as 2.28.
For “CCACUCUUCAAGCAAUCGGCC [Fam1B.1 aminoacylation ribozyme variant]”, the self-aminoacylation with biotinyl-Phe-oxazolone came out at 4.1; with biotinyl-Val-oxazolone, 2.16; with biotinyl-Leu-oxazolone it was 2.23; in the data set on biotinyl-Trp-oxazolone it was 4.14.
With “AUUACCCUGGUGAGCGAGUGA [Fam2.1 aminoacylation ribozyme variant]”, the self-aminoacylation came to 22.2 with biotinyl-Phe-oxazolone; 2.4 with biotinyl-Ile-oxazolone; 3.94 in the data set on biotinyl-Met-oxazolone; 3.8 in the data set with biotinyl-Leu-oxazolone; 3.97 in the data set with biotinyl-Trp-oxazolone.
Turning to “CCACACGUCAAGCAAUCGCUC [Fam1B.1 aminoacylation ribozyme variant]”, the self-aminoacylation in the data set on biotinyl-Met-oxazolone is 2.64; with biotinyl-Val-oxazolone, 2.54.
Take “CUUCACCUAGGUCAUCGGCUG [Fam2.2 aminoacylation ribozyme variant]”: the self-aminoacylation in the data set with biotinyl-Phe-oxazolone was determined as 9.39; with biotinyl-Val-oxazolone, 2.27; with biotinyl-Trp-oxazolone it was 2.25.
On to “AAGCUUGCUAACAGUCGCAAG [Fam3.1 aminoacylation ribozyme variant]”, for which the self-aminoacylation with biotinyl-Phe-oxazolone came to 3.33; with biotinyl-Met-oxazolone it was 2.4; with biotinyl-Leu-oxazolone, 2.5.
Consider “AUUCACGUAGGUCAUCGGGUC [Fam2.2 aminoacylation ribozyme variant]”, for which the figures for the self-aminoacylation in the data set with biotinyl-Phe-oxazolone, in the data set with biotinyl-Met-oxazolone and in the data set on biotinyl-Val-oxazolone were 9.36, 2.19 and 2.28, respectively.
On to “UUUCACCUAGGUCAUCGGGUC [Fam2.2 aminoacylation ribozyme variant]”, for which the figures for the self-aminoacylation in the data set with biotinyl-Phe-oxazolone and with biotinyl-Val-oxazolone were 2.14 and 2.09, respectively.
Turning to “AAGUUUUCUAACAGUCGCAAG [Fam3.1 aminoacylation ribozyme variant]”, the values for the self-aminoacylation in the data set with biotinyl-Phe-oxazolone and in the data set with biotinyl-Ile-oxazolone were 3.07 and 2.04, respectively.
For “CCACACUUCAAGCAAUCGGCC [Fam1B.1 aminoacylation ribozyme variant]”, the values for the self-aminoacylation in the data set with biotinyl-Phe-oxazolone, with biotinyl-Val-oxazolone and in the data set on biotinyl-Trp-oxazolone were 4.93, 2.17 and 4.72, respectively.
For the sequence “AUUACCCUGGUCCUGGAGUGA [Fam2.1 aminoacylation ribozyme variant]”, the self-aminoacylation in the data set with biotinyl-Phe-oxazolone was determined as 10.7; in the data set on biotinyl-Ile-oxazolone, 2.07; in the data set with biotinyl-Met-oxazolone, 3.13; in the data set on biotinyl-Leu-oxazolone it was 2.79; in the data set on biotinyl-Trp-oxazolone, 3.33.
In the case of “AUUCACCUAGGUAAUCUGGUG [Fam2.2 aminoacylation ribozyme variant]”, the self-aminoacylation in the data set on biotinyl-Phe-oxazolone came out at 16.9; in the data set with biotinyl-Met-oxazolone, 3.3; in the data set with biotinyl-Leu-oxazolone it was 4.66; in the data set on biotinyl-Trp-oxazolone it was 3.62.
On to “CCACACUUCAAUCAAUCGGCC [Fam1B.1 aminoacylation ribozyme variant]”, for which the self-aminoacylation with biotinyl-Phe-oxazolone came to 2.71; in the data set on biotinyl-Val-oxazolone, 2.11; in the data set with biotinyl-Leu-oxazolone, 2.16; in the data set on biotinyl-Trp-oxazolone it was 2.62.
Regarding “AUUACCCUGGUACUCGAGUGA [Fam2.1 aminoacylation ribozyme variant]”, the self-aminoacylation was found to be 10.3 in the data set on biotinyl-Phe-oxazolone, 2.66 with biotinyl-Met-oxazolone, 2.66 with biotinyl-Leu-oxazolone and 3.35 in the data set on biotinyl-Trp-oxazolone.
Take “AUUACCCUGGGGAUCGAGUGA [Fam2.1 aminoacylation ribozyme variant]”: the self-aminoacylation in the data set on biotinyl-Phe-oxazolone was 14.1; with biotinyl-Met-oxazolone, 2.55; in the data set with biotinyl-Leu-oxazolone, 3.34; with biotinyl-Trp-oxazolone, 3.94.
As for “AUUCACCUAGGUCAACGGGCG [Fam2.2 aminoacylation ribozyme variant]”, the self-aminoacylation in the data set with biotinyl-Phe-oxazolone was 10.4; with biotinyl-Ile-oxazolone, 2.59; in the data set with biotinyl-Met-oxazolone, 2.85; in the data set on biotinyl-Leu-oxazolone, 3.24.
As to “CCGCACUUCAAGCAAUCGGUU [Fam1B.1 aminoacylation ribozyme variant]”, the self-aminoacylation in the data set on biotinyl-Phe-oxazolone worked out at 13.9; with biotinyl-Val-oxazolone, 2.45; in the data set with biotinyl-Leu-oxazolone, 2.4; in the data set on biotinyl-Trp-oxazolone it was 14.4.
As for “AAAUUCGCUAAUAGUCGCAAG [Fam3.1 aminoacylation ribozyme variant]”, the self-aminoacylation with biotinyl-Phe-oxazolone worked out at 2.65; with biotinyl-Ile-oxazolone, 2.89; with biotinyl-Met-oxazolone it was 2.31; with biotinyl-Leu-oxazolone, 2.19; in the data set with biotinyl-Trp-oxazolone, 2.09.
With “AUUCACCUACGUCAUCGGGGG [Fam2.2 aminoacylation ribozyme variant]”, the values for the self-aminoacylation in the data set with biotinyl-Phe-oxazolone, in the data set with biotinyl-Val-oxazolone and in the data set with biotinyl-Leu-oxazolone were 6.05, 2.01 and 2.68, respectively.
Take “AUUCACCUACGUCAUCAGGUG [Fam2.2 aminoacylation ribozyme variant]”: the self-aminoacylation was 9.1 in the data set with biotinyl-Phe-oxazolone, 2.73 with biotinyl-Met-oxazolone, 2.86 with biotinyl-Leu-oxazolone and 2.08 with biotinyl-Trp-oxazolone.
Regarding “AAGUUUCCUAAUAGUCGCAGG [Fam3.1 aminoacylation ribozyme variant]”, the self-aminoacylation was 11.8 in the data set on biotinyl-Phe-oxazolone, 2.09 in the data set with biotinyl-Ile-oxazolone, 2.16 in the data set on biotinyl-Met-oxazolone and 2.06 in the data set on biotinyl-Leu-oxazolone.
Regarding “CUGCUUCAAACAAUCGGUGUG [Fam1A.1 aminoacylation ribozyme variant]”, the self-aminoacylation in the data set on biotinyl-Phe-oxazolone was found to be 124; in the data set on biotinyl-Met-oxazolone, 2.12; with biotinyl-Leu-oxazolone it was 3.16; with biotinyl-Trp-oxazolone it was 49.6.
Taken in the same sequence, the figures for “CAACUUCAAACAAUCGGUCGG [Fam1A.1 aminoacylation ribozyme variant]” were 87.2, 2.1, 2.79 and 32.4.
For “AUUACGCUGGUCAUCAAGUGA [Fam2.1 aminoacylation ribozyme variant]”, in that order: 2.38, 2.63, 2.55 and 3.76.
For “AUUACCCUGCUCUUCGAGUGA [Fam2.1 aminoacylation ribozyme variant]”, in that order: 2.38, 2.02, 2.36 and 2.72.
